“And” between values parts separate entries of the source, which are not always exact repeats. Equal values may be shown once. “Also recorded” adds a separate entry of the source.
B1: hemextin A (protein)
chain: LKCKNKLVPFLSKTCPEGKNLCYKMTMLKMPKIPIKRGCTDACPKSSLLVKVVCCNKDKCN
B2: hemextin B (protein)
chain: LKCKNKVVPFLKCKNKVVPFLCYKMTLKKVPKIPIKRGCTDACPKSSLLVNVMCCKTDKCN
B3: hemextin AB complex: synergistic 1:1 tetrameric complex of hemextin A and hemextin B, reconstituted from equimolar proteins (protein)
chain 1: B1 chain
chain 2: B2 chain

Tests used:
[1] = Hydrodynamic diameter by DLS; assay type: physicochemical; conditions: for hydrodynamic diameter (DLS): 50 mM Tris-HCl buffer (pH 7.4), 25° C.; for hydrodynamic diameter (DLS) in buffers of high ionic strength: 75 mM and 150 mM NaCl
Procedure: (B) Dynamic Light Scattering (DLS)—Complex formation studies with DLS were carried out at 25° C. using a BI200SM instrument (Brookhaven Instruments Corporation, Holstvile, N.Y., USA). A vertically polarized argon ion laser (514.2 nm, 75 mW; NEC model GLG-3112) was used as the light source. Sample solutions of hemextin A (4 mM), hemextin B (4.1 mM) and hemextin AB complex (2.3 mM) were prepared immediately prior to the experiment. The hydrodynamic diameter for the hemextin AB complex and the individual hemextins were recorded at 25° C. in solutions of different ionic strengths and at different glycerol concentrations. The ionic strengths were varied by the addition of NaCl. From the measured translational diffusion coefficient (DT), the hydrodynamic radius (RH) can be calculated using the Stokes-Einstein relation: […]
where kB is the Boltzmann constant, T is the temperature in Kelvin and η being the viscosity of the solvent. The intensity-intensity time correlation functions were obtained with a BI-9000 digital correlator equipped with the instrument. The particle size and size distribution were obtained by analyzing the field correlation function |g^(1)(τ)| using constrained regularized CONTIN method (73).

[2] = molecular target: Plasma Kallikrein (Homo sapiens, UniProt P03952); experiment: Serine protease specificity, plasma kallikrein; assay type: biochemical; conditions: for inhibitory potency towards FVIIa versus plasma kallikrein: FVIIa in the absence or presence of sTF; for Observed Effect, plasma kallikrein amidolytic activity: plasma kallikrein (0.4 nM)/S-2302
Procedure: (§1) Serine protease specificity—The selectivity profile of anticoagulant proteins and their complex was examined against 12 serine proteases—procoagulant serine proteases (FIXa, FXa, FXIa, FXIIa, plasma kallikrein and thrombin), anticoagulant serine protease (APC), fibrinolytic serine proteases (urokinase, t-PA and plasmin) and classical serine proteases (trypsin and chymotrypsin). Various concentrations of purified hemextin A/hemextin B and reconstituted hemextin AB complex were preincubated with each of the enzymes (Table 1) for a period of five minutes at a temperature of 37° C., followed by the addition of appropriate chromogenic substrate.
(§2) For studies with FXIa, kallikrein and urokinase, the appropriate substrates were determined prior to their screening against the inhibitors. For FXIa, the Vmax for the amidolytic activity corresponding to the chromogenic substrates S-2266, S-2302 and S-2366 was determined. S-2302 was the substrate with the highest Vmax and thus was used in the screening studies. Similar studies with kallikrein and urokinase were carried out with substrates S-2266, S-2302 and S-2288 for kallikrein and S-2444 and S-2484 for urokinase. In a total volume of 200 μl in the individual wells of the microtiter plate, final concentrations of FVIIa (300 nM)/S-2288, FVIIa-sTF (30 nM)/S-2288, FXa (0.75 nM)/S-2765, α-thrombin (0.66 nM)/S-2238, plasmin (2 nM)/S-2366, FIXa (3 μM)/spectrozyme®fIXa, FXIa (0.34 nM)/S-2366, FXIIa (0.4 nM)/S-2302, recombinant tissue plasminogen activator (80 nM)/S-2288, activated protein C (0.34 nM)/S-2366, urokinase/S-2444, plasma kallikrein (0.4 nM)/S-2302, trypsin (2.17 nM)/S-2222 and chymotrypsin (0.4 nM)/S-2586 were measured. The kinetic rate of substrate hydrolysis (mOD/min) was measured over 5 min.

[3] = molecular target: Urokinase (Homo sapiens, UniProt P00749); experiment: Serine protease specificity, urokinase; assay type: biochemical; conditions: urokinase/S-2444
Procedure: as §1, §2

[4] = molecular target: APC (Homo sapiens, UniProt P04070); experiment: Serine protease specificity, APC; assay type: biochemical; conditions: activated protein C (0.34 nM)/S-2366
Procedure: as §1, §2

[5] = molecular target: T1, TF-FVIIa complex (Homo sapiens, UniProt P08709); experiment: Reconstituted extrinsic tenase complex, FXa formation; assay type: biochemical; conditions: for inhibition of extrinsic tenase activity: 10 pM FVIIa, 70 nM TF, 30 nM FX, FXa by S-2222
T1 construct: tissue Dade Behring Marburg, Germany (TF, Innovin only); host or cells: human plasma (FVIIa)
Procedure: Reconstitution of the extrinsic tenase complex—TF-FVIIa complex was reconstituted by incubating 10 pM FVIIa with 70 nM of recombinant human TF (Innovin) in Buffer A (20 mM HEPES, 150 mM NaCl, 10 mM CaCl2 and 1% BSA, pH 7.4) for 10 min at 37° C. Then FX was added to the mixture to obtain a final concentration of 30 nM. The activation was stopped by the addition 50 μl of stop buffer (20 mM HEPES, 150 mM NaCl, 50 mM EDTA and 1% BSA, pH 7.4) to 50 μl aliquots of the reaction mixture after 15 min incubation. FXa formed was measured by the hydrolysis 1 mM of S-2222 in Buffer A in a microtiter plate reader at 405 nm. The inhibitory effect on extrinsic tenase activity was determined by adding the individual proteins or the anticoagulant complex 15 min prior to FX addition.

[6] = system: Trypsin; experiment: Serine protease specificity, trypsin; assay type: biochemical; conditions: trypsin (2.17 nM)/S-2222
Procedure: as §1, §2

[7] = molecular target: Factor IXa (Homo sapiens, UniProt P00740); experiment: Serine protease specificity, FIXa; assay type: biochemical; conditions: FIXa (3 μM)/Spectrozyme fIXa
Procedure: as §1, §2

[8] = molecular target: t-PA (Homo sapiens, UniProt P00750); experiment: Serine protease specificity, t-PA; assay type: biochemical; conditions: recombinant tissue plasminogen activator (80 nM)/S-2288
Procedure: as §1, §2

[9] = molecular target: Plasmin (Homo sapiens, UniProt P00747); experiment: Serine protease specificity, plasmin; assay type: biochemical; conditions: plasmin (2 nM)
Procedure: as §1, §2

[10] = Molecular diameter by GEMMA; assay type: physicochemical; conditions: gas phase, 20 mM ammonium acetate (pH 7.4)
Procedure: (A) Gas Phase Electrophoretic Mobility Macromolecule Analyzer (GEMMA)—The molecular diameters in the gas phase were determined with GEMMA (71, 72) using a nano-differential mobility analyzer, model 3980 (TSI, St Paul, Minn., USA), and a standard CPC type 3025 (TSI, St Paul, Minn., USA). The instrument was operated in the ‘cone jet’ mode with an operating voltage between 2.5 and 3.0 kV, resulting in currents from 200 to 300 nA. Filtered ambient air at 2 l/min and a concentric sheath gas flow of filtered CO2 at 0.1/min was used to stabilize the electrospray against corona discharge. Sample solutions of hemextin A (4 ng/ml) and hemextin B (4 ng/ml) were prepared in 20 mM ammonium acetate (pH 7.4) immediately prior to the experiment. Hemextin AB complex (4.5 ng/ml) was reconstituted in the above buffer and was incubated at 37° C. for 10 min. Another three-finger protein, toxin C isolated and purified from the same venom was used as a control in the GEMMA experiments. The samples were infused into the electrospray chamber with an inlet flow rate of 100 nl/min. Twenty scans over the whole EM diameter range (0 to 25 nm) were recorded and averaged to obtain a GEMMA spectrum. No smoothing algorithm was applied for the data presentation.

T1 sequence (P08709 61-212 limits assumed): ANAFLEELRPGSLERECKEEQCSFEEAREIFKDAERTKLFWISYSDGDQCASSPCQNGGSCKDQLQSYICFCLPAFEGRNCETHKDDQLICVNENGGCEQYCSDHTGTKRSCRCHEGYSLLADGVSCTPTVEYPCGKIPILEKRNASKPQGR
T1 sequence (P08709 213-466 limits assumed): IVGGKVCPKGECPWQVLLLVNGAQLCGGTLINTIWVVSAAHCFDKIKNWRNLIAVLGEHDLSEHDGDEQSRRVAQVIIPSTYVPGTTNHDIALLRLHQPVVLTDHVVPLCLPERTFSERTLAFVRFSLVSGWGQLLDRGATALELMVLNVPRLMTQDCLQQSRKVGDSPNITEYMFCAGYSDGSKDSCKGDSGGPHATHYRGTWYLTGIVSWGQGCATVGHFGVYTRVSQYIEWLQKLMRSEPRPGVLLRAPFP
T1 sequence (P13726 33-295 partner): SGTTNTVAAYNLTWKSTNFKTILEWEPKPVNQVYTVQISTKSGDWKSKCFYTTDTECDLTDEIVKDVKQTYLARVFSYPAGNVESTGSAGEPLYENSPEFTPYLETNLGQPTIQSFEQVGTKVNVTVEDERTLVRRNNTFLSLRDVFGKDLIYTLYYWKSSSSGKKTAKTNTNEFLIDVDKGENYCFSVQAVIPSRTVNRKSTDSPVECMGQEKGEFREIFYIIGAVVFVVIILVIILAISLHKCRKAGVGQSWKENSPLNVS
Chain of Plasma Kallikrein (P03952 391-638 limits assumed, species assumed): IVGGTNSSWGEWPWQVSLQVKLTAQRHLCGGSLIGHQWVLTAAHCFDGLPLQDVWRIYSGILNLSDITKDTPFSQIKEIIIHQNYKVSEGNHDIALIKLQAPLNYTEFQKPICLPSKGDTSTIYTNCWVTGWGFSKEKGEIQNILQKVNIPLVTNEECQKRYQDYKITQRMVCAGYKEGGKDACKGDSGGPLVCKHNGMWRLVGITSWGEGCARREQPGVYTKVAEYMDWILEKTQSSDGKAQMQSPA
Chain of Plasma Kallikrein (P03952 20-390 limits assumed, species assumed): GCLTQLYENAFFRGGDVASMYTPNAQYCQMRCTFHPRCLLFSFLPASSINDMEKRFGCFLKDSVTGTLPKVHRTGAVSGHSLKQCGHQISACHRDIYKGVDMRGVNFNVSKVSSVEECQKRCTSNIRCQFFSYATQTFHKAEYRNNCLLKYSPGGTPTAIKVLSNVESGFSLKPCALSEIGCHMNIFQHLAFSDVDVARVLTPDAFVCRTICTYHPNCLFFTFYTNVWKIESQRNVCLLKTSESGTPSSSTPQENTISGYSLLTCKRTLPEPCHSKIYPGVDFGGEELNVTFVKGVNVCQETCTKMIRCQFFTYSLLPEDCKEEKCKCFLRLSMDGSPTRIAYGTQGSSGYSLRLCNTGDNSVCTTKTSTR
Chain of t-PA (P00750 36-562, species assumed): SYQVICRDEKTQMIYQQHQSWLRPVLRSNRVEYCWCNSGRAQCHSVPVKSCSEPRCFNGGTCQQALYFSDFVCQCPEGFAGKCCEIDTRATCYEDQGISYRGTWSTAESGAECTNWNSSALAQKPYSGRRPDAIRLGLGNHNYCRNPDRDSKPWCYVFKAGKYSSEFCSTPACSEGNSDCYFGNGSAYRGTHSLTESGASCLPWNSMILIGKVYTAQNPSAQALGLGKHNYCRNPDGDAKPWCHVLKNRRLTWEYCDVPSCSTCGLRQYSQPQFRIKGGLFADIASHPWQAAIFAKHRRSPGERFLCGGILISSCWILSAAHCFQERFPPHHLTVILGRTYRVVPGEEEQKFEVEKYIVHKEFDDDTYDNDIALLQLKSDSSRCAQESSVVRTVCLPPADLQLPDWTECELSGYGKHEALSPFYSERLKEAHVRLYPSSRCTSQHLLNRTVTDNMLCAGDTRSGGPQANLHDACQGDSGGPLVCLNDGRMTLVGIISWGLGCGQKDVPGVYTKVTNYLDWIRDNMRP
Chain of Plasmin (P00747 581-810 limits assumed, species assumed): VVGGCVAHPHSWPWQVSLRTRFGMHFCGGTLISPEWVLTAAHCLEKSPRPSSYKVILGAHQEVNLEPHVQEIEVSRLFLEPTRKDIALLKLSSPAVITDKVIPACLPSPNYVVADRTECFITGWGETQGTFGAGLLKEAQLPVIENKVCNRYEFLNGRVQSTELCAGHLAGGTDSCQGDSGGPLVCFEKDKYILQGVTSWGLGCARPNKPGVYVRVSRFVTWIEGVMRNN
Chain of Plasmin (P00747 97-580 limits assumed, species assumed): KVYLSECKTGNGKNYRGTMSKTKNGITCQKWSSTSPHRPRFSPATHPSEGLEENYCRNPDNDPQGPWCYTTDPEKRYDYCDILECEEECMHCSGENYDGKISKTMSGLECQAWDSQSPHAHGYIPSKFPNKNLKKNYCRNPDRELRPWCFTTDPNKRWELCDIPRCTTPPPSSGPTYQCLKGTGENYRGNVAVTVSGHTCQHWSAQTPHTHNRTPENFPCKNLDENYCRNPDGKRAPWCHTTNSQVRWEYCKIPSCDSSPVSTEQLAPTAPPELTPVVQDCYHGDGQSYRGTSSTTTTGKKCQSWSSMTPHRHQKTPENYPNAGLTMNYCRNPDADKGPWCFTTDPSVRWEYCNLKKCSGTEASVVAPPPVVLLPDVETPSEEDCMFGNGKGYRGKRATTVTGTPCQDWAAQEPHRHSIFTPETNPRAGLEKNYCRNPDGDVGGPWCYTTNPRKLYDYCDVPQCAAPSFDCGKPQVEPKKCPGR
Chain of APC (P04070 43-197 limits assumed): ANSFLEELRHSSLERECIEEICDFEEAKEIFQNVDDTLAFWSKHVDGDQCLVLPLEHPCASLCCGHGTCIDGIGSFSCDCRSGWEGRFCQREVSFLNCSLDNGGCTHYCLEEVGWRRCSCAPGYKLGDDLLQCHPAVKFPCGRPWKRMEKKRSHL
Chain of APC (P04070 212-461 limits assumed): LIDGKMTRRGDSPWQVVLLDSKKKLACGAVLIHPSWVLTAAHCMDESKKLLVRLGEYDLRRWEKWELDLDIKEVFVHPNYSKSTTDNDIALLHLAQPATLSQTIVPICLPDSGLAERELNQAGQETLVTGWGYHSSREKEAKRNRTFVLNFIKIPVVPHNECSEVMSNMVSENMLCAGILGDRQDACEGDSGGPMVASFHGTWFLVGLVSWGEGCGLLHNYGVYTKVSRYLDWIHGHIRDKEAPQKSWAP

Row | Molecule | hydrodynamic diameter (DLS) [1] | hydrodynamic diameter (DLS) in buffers of high ionic strength [1] | inhibitory potency towards FVIIa versus plasma kallikrein [2] | Observed Effect, plasma kallikrein amidolytic activity [2] | Observed Effect, urokinase amidolytic activity [3] | Observed Effect, APC amidolytic activity [4] | inhibition of extrinsic tenase activity [5] | Observed Effect, trypsin amidolytic activity [6] | Observed Effect, Factor IXa amidolytic activity [7] | Observed Effect, t-PA amidolytic activity [8] | Observed Effect, plasmin amidolytic activity [9] | apparent molecular diameter (GEMMA) [10] | inhibitory activity of hemextin A on extrinsic tenase with increasing hemextin B ([5]; hemextin A constant at 50 μM)
1 | B1 | 10.3 nm and 10.4 nm | 11.57 nm | at least 50 times | inhibit plasma kallikrein in a dose-dependant manner; also recorded: inhibit the amidolytic activity of plasma kallikrein | no inhibitory activity | no inhibitory activity | mild inhibitory activity at higher concentrations | no inhibitory activity | no inhibitory activity | no inhibitory activity | no inhibitory activity | 10.2±0.38 nm | –
2 | B2 | 9.9 nm | No change | – | did not inhibit | no inhibitory activity | no inhibitory activity | did not mediate any inhibitory activity | no inhibitory activity | no inhibitory activity | no inhibitory activity | no inhibitory activity | 8.82±0.42 nm | increases with the increasing concentrations of hemextin B until the ratio reached 1:1
3 | B3 | 16.8 nm | – | at least 50 times | inhibit plasma kallikrein in a dose-dependant manner; also recorded: inhibit the amidolytic activity of plasma kallikrein | no inhibitory activity | no inhibitory activity | completely inhibited | no inhibitory activity | no inhibitory activity | no inhibitory activity | no inhibitory activity | 16.3±0.43 nm | –
